The record followed here is IntAct's records for PubMed 18273061.

B1: Protein sprouty homolog 2 (Homo sapiens), O43597 (parent)
chain: MEARAQSGNGSQPLLQTPRDGGRQRGEPDPRDALTQQVHVLSLDQIRAIRNTNEYTEGPTVVPRPGLKPAPRPSTQHKHERLHGLPEHRQPPRLQHSQVHSSARAPLSRSISTVSSGSRSSTRTSTSSSSSEQRLLGSSFSSGPVADGIIRVQPKSELKPGELKPLSKEDLGLHAYRCEDCGKCKCKECTYPRPLPSDWICDKQCLCSAQNVIDYGTCVCCVKGLFYHCSNDDEDNCADNPCSCSQSHCCTRWSAMGVMSLFLPCLWCYLPAKGCLKLCQGCYDRVNRPGCRCKNSNTVCCKVPTVPPRNFEKPT
B2: Vascular endothelial growth factor receptor 1 (Homo sapiens), P17948 (parent)
chain: MVSYWDTGVLLCALLSCLLLTGSSSGSKLKDPELSLKGTQHIMQAGQTLHLQCRGEAAHKWSLPEMVSKESERLSITKSACGRNGKQFCSTLTLNTAQANHTGFYSCKYLAVPTSKKKETESAIYIFISDTGRPFVEMYSEIPEIIHMTEGRELVIPCRVTSPNITVTLKKFPLDTLIPDGKRIIWDSRKGFIISNATYKEIGLLTCEATVNGHLYKTNYLTHRQTNTIIDVQISTPRPVKLLRGHTLVLNCTATTPLNTRVQMTWSYPDEKNKRASVRRRIDQSNSHANIFYSVLTIDKMQNKDKGLYTCRVRSGPSFKSVNTSVHIYDKAFITVKHRKQQVLETVAGKRSYRLSMKVKAFPSPEVVWLKDGLPATEKSARYLTRGYSLIIKDVTEEDAGNYTILLSIKQSNVFKNLTATLIVNVKPQIYEKAVSSFPDPALYPLGSRQILTCTAYGIPQPTIKWFWHPCNHNHSEARCDFCSNNEESFILDADSNMGNRIESITQRMAIIEGKNKMASTLVVADSRISGIYICIASNKVGTVGRNISFYITDVPNGFHVNLEKMPTEGEDLKLSCTVNKFLYRDVTWILLRTVNNRTMHYSISKQKMAITKEHSITLNLTIMNVSLQDSGTYACRARNVYTGEEILQKKEITIRDQEAPYLLRNLSDHTVAISSSTTLDCHANGVPEPQITWFKNNHKIQQEPGIILGPGSSTLFIERVTEEDEGVYHCKATNQKGSVESSAYLTVQGTSDKSNLELITLTCTCVAATLFWLLLTLFIRKMKRSSSEIKTDYLSIIMDPDEVPLDEQCERLPYDASKWEFARERLKLGKSLGRGAFGKVVQASAFGIKKSPTCRTVAVKMLKEGATASEYKALMTELKILTHIGHHLNVVNLLGACTKQGGPLMVIVEYCKYGNLSNYLKSKRDLFFLNKDAALHMEPKKEKMEPGLEQGKKPRLDSVTSSESFASSGFQEDKSLSDVEEEEDSDGFYKEPITMEDLISYSFQVARGMEFLSSRKCIHRDLAARNILLSENNVVKICDFGLARDIYKNPDYVRKGDTRLPLKWMAPESIFDKIYSTKSDVWSYGVLLWEIFSLGGSPYPGVQMDEDFCSRLREGMRMRAPEYSTPEIYQIMLDCWHRDPKERPRFAELVEKLGDLLQANVQQDGKDYIPINAILTGNSGFTYSTPAFSEDFFKESISAPKFNSGSSDDVRYVNAFKFMSLERIKTFEELLPNATSMFDDYQGDSSTLLASPMLKRFTWTDSKPKASLKIDLRVTSKSKESGLSDVSRPSFCHSSCGHVSEGKRRFTYDHAELERKIACCSPPPDYNSVVLYSTPPI

In the first test the parent is B1. As to conditions: with cbl_human CBL.
In the case of P59A, the “effect of a mutation on the interaction” value was “decreasing interaction”.

A further test covers variants of B1. As to conditions: with cbl_human CBL. This is another data set of the same source.
Regarding Y55F, the “effect of a mutation on the interaction” value was “disrupting interaction”.

In another test the parent is B1. As to conditions: with cbl_human CBL. This is another data set of the same source.
Turning to N53A, the “effect of a mutation on the interaction” value is listed as “disrupting interaction”.

In a further test the parent is B2. The settings on record: with cbl_human CBL.
L1332R: the “effect of a mutation on the interaction” value is recorded as “increasing interaction”.

A further test covers variants of B2. The settings on record: with cbl_human CBL. The source holds these as a separate data set.
Regarding V1331N, the “effect of a mutation on the interaction” value is listed as “increasing interaction”.
